Holding throughout (test): PDZ-AP-MS, biotinylated MBP-PDZ baits
Type in all cases: binding, human

Assay [1] has as its system HaCat cell extract preys. The method in brief:
(§1)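 Biotinylated His6-AviTag-MBP-PDZ baits, or MBP alone, saturated streptavidin resin and were then biotin-blocked. Each was incubated with 1 mg cell lysate for 2 h at 4 °C, washed, and eluted in 8 M urea. Eluates were digested with Lys-C/trypsin, run by nanoLC-MS/MS on an Orbitrap Elite (top20 CID) and searched against human SwissProt.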

The subject of assay [2] is Jurkat cell extract preys. The conditions noted are these: for Difference log2: enrichment of prey. The gist of the method: as §1
For assay [3], the system named is HeLa cell extract preys. The following applies: PDZ-AP-MS fold change of the PBM-protein prey. The method in brief:
as §1

Setting [4] is: bait SCRIB_1 PDZ, fold change of prey.
Setting [5] is: PDZ-AP-MS fold change of the PBM-protein prey, bait MBP-PDZ DLG1_1.
Setting [6] is: PDZ-AP-MS fold change of the PBM-protein prey, bait MBP-PDZ DLG1_2.
Where [7] appears, read: PDZ-AP-MS fold change of the PBM-protein prey, bait MBP-PDZ SCRIB_1.
The mark [8] stands for this setting: PDZ-AP-MS fold change of the PBM-protein prey, bait MBP-PDZ SCRIB_2.
[9] abbreviates: PDZ-AP-MS fold change of the PBM-protein prey, bait MBP-PDZ SNX27.
Where [10] appears, read: PDZ-AP-MS fold change of the PBM-protein prey, bait MBP-PDZ TX1BP3.

B1: ARHGEF6 (protein, UniProt Q15052 1-776, looked up)
Rho guanine nucleotide …: MNPEEQIVTWLISLGVLESPKKTICDPEEFLKSSLKNGVVLCKLINRLMPGSVEKFCLDPQTEADCINNINDFLKGCATLQVEIFDPDDLYSGVNFSKVLSTLLAVNKATEDQLSERPCGRSSSLSAANTSQTNPQGAVSSTVSGLQRQSKTVEMTENGSHQLIVKARFNFKQTNEDELSVCKGDIIYVTRVEEGGWWEGTLNGRTGWFPSNYVREIKSSERPLSPKAVKGFETAPLTKNYYTVVLQNILDTEKEYAKELQSLLVTYLRPLQSNNNLSTVEVTSLLGNFEEVCTFQQTLCQALEECSKFPENQHKVGGCLLSLMPHFKSMYLAYCANHPSAVNVLTQHSDELEQFMENQGASSPGILILTTNLSKPFMRLEKYVTLLQELERHMEDTHPDHQDILKAIVAFKTLMGQCQDLRKRKQLELQILSEPIQAWEGEDIKNLGNVIFMSQVMVQYGACEEKEERYLMLFSNVLIMLSASPRMSGFIYQGKIPIAGTVVTRLDEIEGNDCTFEITGNTVERIVVHCNNNQDFQEWLEQLNRLIRGPASCSSLSKTSSSSCSAHSSFSSTGQPRGPLEPPQIIKPWSLSCLRPAPPLRPSAALGYKERMSYILKESSKSPKTMKKFLHKRKTERKPSEEEYVIRKSTAALEEDAQILKVIEAYCTSANFQQGHGSSTRKDSIPQVLLPEEEKLIIEETRSNGQTIMEEKSLVDTVYALKDEVRELKQENKRMKQCLEEELKSRRDLEKLVRRLLKQTDECIRGESSSKTSILP
Take B1: the “Difference log2” value is listed as 5.7166 in assay [1] (bait SCRIB_1 PDZ vs MBP, enrichment of prey); 4.28 in assay [2] (bait SCRIB_1 PDZ vs MBP); 7.045 in assay [2] (bait TX1BP3 PDZ vs MBP). The “Ratio SCRIB_1/MBP” value in assay [1] (setting [4]) worked out at 52.5856; in assay [2] (setting [4]), 19.4266. Besides, in assay [2] (bait TX1BP3 PDZ, fold change of prey), the “Ratio TX1BP3 / MBP” value is listed as 132.089.

B2: SRSF3 (protein, UniProt P84103 1-164, looked up)
Serine/arginine-rich splicing …: MHRDSCPLDCKVYVGNLGNNGNKTELERAFGYYGPLRSVWVARNPPGFAFVEFEDPRDAADAVRELDGRTLCGCRVRVELSNGEKRSRNRGPPPSWGRRPRDDYRRRSPPPRRRSPRRRSFSRSRSRSLSRDRRRERSLSRERNHKPSRSFSRSRSRSRSNERK
Consider B2, for which the “Fold changes, HaCat, DLG1_1” value in assay [1] (setting [5]) was 0.6471. Also, the “Fold changes, HaCat, DLG1_2” value in assay [1] (setting [6]) came to 0.7027. Besides, the “Fold changes, HaCat, SCRIB_1” value in assay [1] (setting [7]) was 0.4366. The “Fold changes, HaCat, SCRIB_2” value in assay [1] (setting [8]) was 0.378. Besides, in assay [1] (setting [9]), the “Fold changes, HaCat, SNX27” value is 0.5499. The “Fold changes, HaCat, TX1BP3” value in assay [1] (setting [10]) amounted to 0.6457. Besides, the “Fold changes, HeLa, DLG1_1” value in assay [3] (bait MBP-PDZ DLG1_1) was determined as 8.89. In addition, the “Fold changes, HeLa, DLG1_2” value in assay [3] (bait MBP-PDZ DLG1_2) was found to be 0.7503. The “Fold changes, HeLa, SCRIB_1” value in assay [3] (bait MBP-PDZ SCRIB_1) is listed as 8.2529. Also, the “Fold changes, HeLa, SCRIB_2” value in assay [3] (bait MBP-PDZ SCRIB_2) worked out at 6.813. Besides, the “Fold changes, HeLa, SNX27” value in assay [3] (bait MBP-PDZ SNX27) came to 0.891. In addition, in assay [3] (bait MBP-PDZ TX1BP3), the “Fold changes, HeLa, TX1BP3” value was 0.5408. Further, in assay [2] (setting [5]), the “Fold changes, Jurkat, DLG1_1” value was 0.942. Further, the “Fold changes, Jurkat, DLG1_2” value in assay [2] (setting [6]) was determined as 1.581. Moreover, the “Fold changes, Jurkat, SCRIB_1” value in assay [2] (setting [7]) is 0.6991. The “Fold changes, Jurkat, SCRIB_2” value in assay [2] (setting [8]) is on record as 0.9858. Besides, the “Fold changes, Jurkat, SNX27” value in assay [2] (setting [9]) is 1.323. Further, in assay [2] (setting [10]), the “Fold changes, Jurkat, TX1BP3” value stood at 0.7942.

Values taken from publication PMC9482650, “Quantitative fragmentomics allow affinity mapping of interactomes” (Nature Communications, 2022).
